Measured values reported in PMC6776994.

Experiments:
[1] = molecular target: CCR5 chemokine receptor (human) (UniProt P51681); assay: flow cytometry on cells
[2] = molecular target: CCR5 chemokine receptor (human) (UniProt P51681); assay: plasmonic metal-enhanced fluorescence imaging of cells

UniProt P51681, sequence (P51681 whole entry): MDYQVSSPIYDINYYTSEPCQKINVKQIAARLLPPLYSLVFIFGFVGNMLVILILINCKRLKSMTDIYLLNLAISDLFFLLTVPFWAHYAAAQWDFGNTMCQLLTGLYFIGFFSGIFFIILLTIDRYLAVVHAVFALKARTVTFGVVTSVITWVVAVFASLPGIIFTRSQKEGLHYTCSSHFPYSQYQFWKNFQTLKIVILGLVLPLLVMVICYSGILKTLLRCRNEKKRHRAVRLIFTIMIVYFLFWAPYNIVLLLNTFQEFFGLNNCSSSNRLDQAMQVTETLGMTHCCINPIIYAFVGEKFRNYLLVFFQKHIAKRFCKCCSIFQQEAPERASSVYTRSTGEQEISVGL

Substance: full length single chain (FLSC) IgG1 (Fc fusion)
- reduction in CCR5 intensity (staining by mAb 45531) after FLSC IgG1 [1]: 10%
- fold increase of CCR5 binding on MVC-treated against untreated cells [2]: 1.65 fold
